Biological target: T1, engineered human PTCH1 protein (PTCH1*, a functional PTCH1 variant with two cytosolic loops truncated) (Homo sapiens, stabilised)
T1 chain: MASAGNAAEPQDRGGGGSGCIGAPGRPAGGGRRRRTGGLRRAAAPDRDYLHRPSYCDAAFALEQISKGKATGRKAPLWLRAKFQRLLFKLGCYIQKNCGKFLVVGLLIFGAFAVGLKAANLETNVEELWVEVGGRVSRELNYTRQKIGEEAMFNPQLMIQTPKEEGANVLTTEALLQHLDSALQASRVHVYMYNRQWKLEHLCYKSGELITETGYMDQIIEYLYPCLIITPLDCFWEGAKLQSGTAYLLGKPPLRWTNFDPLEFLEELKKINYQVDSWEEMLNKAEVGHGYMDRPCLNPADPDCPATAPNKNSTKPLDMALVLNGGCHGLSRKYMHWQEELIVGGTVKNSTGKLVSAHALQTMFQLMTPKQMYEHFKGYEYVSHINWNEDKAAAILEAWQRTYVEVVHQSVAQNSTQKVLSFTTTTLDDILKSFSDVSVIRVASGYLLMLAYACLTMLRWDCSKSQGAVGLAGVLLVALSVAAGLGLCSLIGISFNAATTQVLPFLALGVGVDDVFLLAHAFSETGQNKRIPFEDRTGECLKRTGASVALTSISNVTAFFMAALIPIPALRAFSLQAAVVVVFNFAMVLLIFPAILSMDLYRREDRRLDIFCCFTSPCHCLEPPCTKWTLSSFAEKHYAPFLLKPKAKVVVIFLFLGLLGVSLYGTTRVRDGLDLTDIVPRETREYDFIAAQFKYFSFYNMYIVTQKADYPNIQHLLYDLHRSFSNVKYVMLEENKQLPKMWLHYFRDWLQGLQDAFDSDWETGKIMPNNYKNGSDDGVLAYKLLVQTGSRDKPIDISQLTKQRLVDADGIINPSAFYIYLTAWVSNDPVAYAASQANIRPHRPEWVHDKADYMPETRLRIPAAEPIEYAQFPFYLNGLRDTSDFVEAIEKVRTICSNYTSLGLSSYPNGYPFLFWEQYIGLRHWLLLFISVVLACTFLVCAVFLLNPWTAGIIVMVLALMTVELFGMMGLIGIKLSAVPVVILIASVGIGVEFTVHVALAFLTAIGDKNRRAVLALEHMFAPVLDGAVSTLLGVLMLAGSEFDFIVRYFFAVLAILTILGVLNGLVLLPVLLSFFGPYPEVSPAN
Experiment: cell-based or functional assay

B1: Fab^6H3 (Fab, V domains shown)
VH: EVQLVESGGGLVKPGGSRKLSCVASGFTLSDYGMHWVRQAPEKGLEWVAYIGSDSYTIYHADTMKGRFTISRDNAKNTLFLQMTSLRSEDTAMYYCGRNYGMDYWGQGTS
VL: VLTQSPAIMSASLGERVTLTCTASSSVTSSYLHWYQQKPGSSPKLWIYSTSNLPFGVSPRFSGSGSGTSFSLTISSMEAEDAATYYCHQFHRSPYTFGGGTK
- IC50 of the dose-dependent inhibition of HH signaling, Dual-Luciferase Reporter Assay in SHH-Light II cells; pair blocked: SHH with PTCH1: ~77.8 nM
